Experiments:
[1] = molecular target: T1, human Bcl-xL, full length, wild type (human, UniProt Q07817-1 1-233); assay: HDX-MS; conditions Bcl-xL; Bcl-xL + LUVs; Bcl-xL + LUVs + cBid; cBid; proteins (340 pmol) pre-incubated with LUVs 1 h at 37 °C, centrifuged at 20'000 x g, the pellet used for deuterium labelling; conditions: both partners purified
T1 construct: human Bcl-xL, full length with the C-terminal hydrophobic helix α9; also called Bcl-xL wt; unlabeled wild type Bcl-xL; source: E. coli, purified from the soluble fraction (chitin resin, anion exchange, Superdex 200)
T1 sequence (Q07817 whole entry): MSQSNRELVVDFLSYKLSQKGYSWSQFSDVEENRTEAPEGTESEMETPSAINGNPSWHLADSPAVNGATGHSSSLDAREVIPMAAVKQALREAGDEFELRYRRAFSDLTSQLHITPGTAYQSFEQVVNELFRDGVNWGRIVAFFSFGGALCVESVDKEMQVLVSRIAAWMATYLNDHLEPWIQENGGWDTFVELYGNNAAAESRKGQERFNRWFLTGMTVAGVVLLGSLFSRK

[2] = molecular target: T1, human Bcl-xL, full length, wild type; assay: co-sedimentation; spin-labeled protein incubated with LUVs alone or with the unlabeled partner; supernatant and pellet fractions quantified by room temperature continuous wave EPR (spin counting); conditions: both partners purified

B1: cBid (mouse Bid cleaved by Caspase 8), wild type (complex)
chain 1: MDSEVSNGSGLGAEHITDLLVFGFLQSSGCTRQELEVLGRELPVQAYWEADLEDELQTD
chain 2: GSQASRSFNQGRIEPDSESQEEIIHNIARHLAQIGDEMDHNIQPTLVRQLAAQFMNGSLSEEDKRNCLAKALDEVKTAFPRDMENDKAMLIMTMLLAKKVASHAPSLLRDVFHTTVNFINQNLFSYVRNLVRNEMD
notes: also called cBid wt; cBidWT; source: E. coli, purified from the soluble fraction (Ni-NTA), cleaved with Caspase 8, purified again with Ni-NTA; not shown: His tag (on Bid before cleavage)
**Q.** Does B1 bind [1]?
**A.** binds

B2: cBid spin-labeled at the natural cysteine 126 (complex, mouse)
chain 1: MDSEVSNGSGLGAEHITDLLVFGFLQSSGSTRQELEVLGRELPVQAYWEADLEDELQTD
chain 2: GSQASRSFNQGRIEPDSESQEEIIHNIARHLAQIGDEMDHNIQPTLVRQLAAQFMNGSLSEEDKRNCLAKALDEVKTAFPRDMENDKAMLIMTMLLAKKVASHAPSLLRDVFHTTVNFINQNLFSYVRNLVRNEMD
modifications: MTSL spin label on cysteine 126
notes: p7 fragment of mouse Bid; natural cysteine C30 replaced by serine (singly labeled variant); tBid fragment of mouse Bid with its natural cysteine C126; source: E. coli, purified (Ni-NTA), cleaved with Caspase 8, purified again with Ni-NTA, spin-labeled with MTSL; not shown: His tag (on Bid before cleavage)
**Q.** Does B2 bind [2]?
**A.** binds

From doi:10.1101/2025.08.31.673340, “Structural and dynamic basis of indirect apoptosis inhibition by Bcl-xL: a case study with Bid” (bioRxiv, 2025)
